{"source": "paper PMC10853779", "binders": {"B1": {"name": "phosphorylated NarL (E. coli nitrate-responsive transcription regulator), wild type, P0AF28 1-216 (natural protein)", "chain": "MSNQEPATILLIDDHPMLRTGVKQLISMAPDITVVGEASNGEQGIELAESLDPDLILLDLNMPGMNGLETLDKLREKSLSGRIVVFSVSNHEEDVVTALKRGADGYLLKDMEPEDLLKALHQAAAGEMVLSEALTPVLAASLRANRATTERDVNQLTPRERDILKLIAQGLPNKMIARRLDITESTVKVHVKHMLKKMKLKSRVEAAVWVHQERIF"}}, "target": "T1, phosphorylated NarL (E. coli nitrate-responsive transcription regulator), wild type (E. coli K12), P0AF28", "T1 chain": "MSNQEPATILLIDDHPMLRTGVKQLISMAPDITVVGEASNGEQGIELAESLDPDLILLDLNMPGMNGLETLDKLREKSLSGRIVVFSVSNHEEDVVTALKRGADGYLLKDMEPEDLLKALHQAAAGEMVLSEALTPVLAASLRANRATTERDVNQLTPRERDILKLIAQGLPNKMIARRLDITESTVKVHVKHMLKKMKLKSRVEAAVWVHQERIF", "assay": "cryo-EM structure", "conditions": "remark: other sources report otherwise"}
{"binder": "B1", "values": [{"measurement": "stoichiometry N", "result": 2}]}
